Measured values reported in patent publication US20070178095A1 (Eli Lilly, published 2007).
Changes are numbered by the printed parent chain.

Legend:
[1] = target: T1, peptide immunogen ANYCSGESEFVFLQKYPHTHLVHQA (human); experiment: ELISA, peptide coated at 2 ug/ml, Fab 0.016-10 ug/ml
T1 construct: For immunization it was conjugated to KLH and a helper T-cell peptide; also called immunogenic peptide; immunogenic polypeptide
T1 peptide: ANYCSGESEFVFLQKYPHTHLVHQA
Experimental: Each well of two 96-well plates is coated with 70 μl of the peptide immunogen used to generate the Fabs (2 μg/ml in carbonate buffer, pH 9.6). The plates are incubated in a dry oven at 37° C. overnight with the lids removed. The wells are aspirated and washed twice with washing buffer (20 mM Tris (hydroxymethyl) aminomethane, pH 7.4, 0.15 M NaCl, 0.1% Tween-20). The plates are blocked with 200 μl blocking buffer per well (5% BioRad blotting grade milk in the above washing buffer) for 2.5 hours.
The Fabs are diluted into blocking buffer at 10 μg/ml, 2 μg/ml, 0.4 μg/ml, 0.08 μg/ml, and 0.016 μg/ml. A rat anti-myostatin monoclonal antibody (R&D Systems, catalog #MAB788, clone #84214) and a polyclonal anti-myostatin antibody (R&D Systems, catalog #AF788), are used as controls at the above concentrations and are also diluted in blocking buffer. Fifty microliters of each antibody solution is added to the peptide-coated wells in duplicate. The plates are incubated for 1.5 hours at room temperature. The wells are then washed 3 times with washing buffer.
Peroxidase-conjugated secondary antibody (50 μl goat anti-mouse kappa HRP (Southern Biotech) for Fabs, 50 μl mouse anti-rat (Jackson ImmunoResearch) for monoclonal, 50 μl rabbit anti-goat (Jackson ImmunoResearch) for polyclonal, all diluted 1:2000 in blocking buffer is added to each well and incubated for 1 hour at room temperature. The wells are then washed 3 times with washing buffer. Fifty microliters of chromogenic substrate (i.e., OPD substrate) is added to each well and allowed to develop at room temperature for 10 minutes. The reaction is stopped by adding 100 μl 1N HCl to each well. The absorbance of the wells is read at 490 nm.

[2] = target: T2, recombinant mouse myostatin (R&D systems, Cat. #788-G8/CF, carrier-free) (mouse, UniProt O08689 268-376); experiment: ELISA, growth factor coated at 10 ug/ml, Fab at 10 ug/ml, mean of duplicate wells
T2 construct: mature; also called GDF-8; GDF-8/myostatin
T2 sequence (looked up): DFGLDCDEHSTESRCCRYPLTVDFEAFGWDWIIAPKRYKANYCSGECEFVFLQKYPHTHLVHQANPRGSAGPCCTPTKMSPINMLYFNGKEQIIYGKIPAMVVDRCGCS
Experimental: (§1) Peroxidase-conjugated secondary antibody (50 μl goat anti-mouse kappa HRP (Southern Biotech) for the Fabs, 50 μl rabbit anti-goat (Jackson ImmunoResearch) for the polyclonal, diluted 1:2000 in blocking buffer) is added to each well and incubated for 1 hour at room temperature. The wells are then washed 3 times with washing buffer. Fifty microliters of chromogenic substrate (i.e., OPD substrate) is added to each well and allowed to develop at room temperature for 10 minutes. The reaction is stopped by adding 100 μl 1N HCl to each well. The absorbance of the wells is read at 490 nm.

[3] = target: T3, recombinant human GDF-11 (Peprotech, Inc., Cat. # 120-11, carrier-free) (human, UniProt O95390 299-407); experiment: as above
T3 construct: also called BMP-11
T3 sequence (looked up): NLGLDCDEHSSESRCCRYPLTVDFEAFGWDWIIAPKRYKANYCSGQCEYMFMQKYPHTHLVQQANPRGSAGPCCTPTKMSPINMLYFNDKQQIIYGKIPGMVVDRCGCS
Experimental: as §1

[4] = target: T4, IGF-1 (R&D Systems 291-G1) (UniProt P05019 49-118); experiment: as above
T4 construct: Negative control antigen
Experimental: as §1

[5] = target: BMP-2 (R&D Systems 355-BEC/CF) (UniProt P12643 283-396); experiment: as above
Experimental: as §1

[6] = target: T5, BMP-5 (R&D Systems 615-BM) (UniProt P22003 317-454, limits assumed); experiment: as above
T5 sequence (looked up): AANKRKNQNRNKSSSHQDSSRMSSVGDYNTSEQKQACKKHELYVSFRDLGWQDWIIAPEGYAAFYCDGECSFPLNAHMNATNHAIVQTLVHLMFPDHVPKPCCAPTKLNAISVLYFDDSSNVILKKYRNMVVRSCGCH
Experimental: as §1

[7] = target: T6, BMP-6 (R&D Systems 507-BP) (UniProt P22004 382-513, limits assumed); experiment: as above
T6 sequence (looked up): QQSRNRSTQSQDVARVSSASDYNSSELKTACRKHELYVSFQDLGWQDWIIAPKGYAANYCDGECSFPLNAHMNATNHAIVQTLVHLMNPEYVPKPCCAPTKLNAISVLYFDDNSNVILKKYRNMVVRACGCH
Experimental: as §1

[8] = target: T7, BMP-7 (R&D Systems 354-BP) (UniProt P18075 293-431); experiment: as above
T7 sequence (looked up): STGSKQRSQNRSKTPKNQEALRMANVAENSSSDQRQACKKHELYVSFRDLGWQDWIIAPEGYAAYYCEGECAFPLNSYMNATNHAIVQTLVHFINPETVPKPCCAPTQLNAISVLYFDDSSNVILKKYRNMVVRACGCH
Experimental: as §1

[9] = target: T8, Activin A (R&D Systems 338-AC) (UniProt P08476 311-426); experiment: as above
T8 sequence (looked up): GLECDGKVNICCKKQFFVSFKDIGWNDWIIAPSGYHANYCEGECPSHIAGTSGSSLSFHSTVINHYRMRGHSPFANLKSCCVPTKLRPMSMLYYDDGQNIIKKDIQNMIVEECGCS
Experimental: as §1

[10] = target: T9, Activin B (R&D Systems 659-AB) (UniProt P09529 293-407); experiment: as above
T9 sequence (looked up): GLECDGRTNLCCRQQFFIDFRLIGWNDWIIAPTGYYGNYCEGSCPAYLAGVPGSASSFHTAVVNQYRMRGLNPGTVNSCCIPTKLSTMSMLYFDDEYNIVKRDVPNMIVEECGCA
Experimental: as §1

[11] = target: TGF-alpha (R&D Systems 239-A) (UniProt P01135 40-89); experiment: as above
Experimental: as §1

[12] = target: T10, TGF-beta1 (Peprotech, Inc. 100-21R) (UniProt P01137 279-390); experiment: as above
T10 construct: also called TGF-b1
Experimental: as §1

[13] = target: T11, TGF-beta2 (Peprotech, Inc. 100-35) (UniProt P61812 303-414); experiment: as above
T11 construct: also called TGF-b2
T11 sequence (looked up): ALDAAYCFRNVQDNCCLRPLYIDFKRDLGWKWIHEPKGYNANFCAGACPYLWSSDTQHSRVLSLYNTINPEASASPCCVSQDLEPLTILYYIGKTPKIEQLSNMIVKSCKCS
Experimental: as §1

TGF-alpha (R&D Systems 239-A), sequence (P01135 40-89 limits assumed): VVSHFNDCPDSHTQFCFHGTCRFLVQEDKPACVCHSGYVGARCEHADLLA
BMP-2 (R&D Systems 355-BEC/CF), sequence (P12643 283-396 limits assumed): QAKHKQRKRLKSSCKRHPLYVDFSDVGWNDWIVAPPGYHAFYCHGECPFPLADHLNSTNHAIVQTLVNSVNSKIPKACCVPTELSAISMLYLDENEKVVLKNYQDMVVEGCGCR
T10 sequence (P01137 279-390 limits assumed): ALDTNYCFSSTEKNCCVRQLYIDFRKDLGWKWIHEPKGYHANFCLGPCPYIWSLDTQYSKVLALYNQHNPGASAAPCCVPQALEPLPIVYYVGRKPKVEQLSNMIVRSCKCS
T4 sequence (P05019 49-118 limits assumed): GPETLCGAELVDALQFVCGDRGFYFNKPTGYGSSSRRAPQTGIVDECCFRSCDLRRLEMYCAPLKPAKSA

B1: Fab 8 (Fab, V domains shown)
VH: QVTLKESGPGILQSSQTLSLTCSLSGFSLRTSGMSVSWIRQSSGKGLEWLAHIYWDDDKRYNPSLRNRLTISKDTLRNQVFLKITSVGTADTATYYCARRAITTVIGGGTMDYWGQGTSVTVSS
VL: QIVLTQSPAIMSASPGEKVTMTCSASSSVSYMHWYQQKSGTSPKRWIYDTSKLASGVPARFSGSGSGTSYSLTISSMEAEDAATYYCQQWSSNPLTFGAGTKLELKR
notes: Mouse Fab, kappa light chain; also called anti-myostatin Fab 8
binding result [1]: binds

B2: Fab 7 (Fab, V domains shown)
VH: QVTLKSGPGILQSSQTLTLTCSLSGFSLTTSGMIVSWIRQSSGRGLEWLAHIYWDDDKRYNPSLRNRLTISKDTLRNQVFLWISSVGTADTATYYCARRAITTVIGGGTMDYWGQGTSVTVSS
VL: B1 VL with V29I, S39P, S91Y
notes: Mouse Fab, kappa light chain; also called anti-myostatin Fab 7
absorbance at 490 nm [2]: 0.358 OD 490 nm | absorbance at 490 nm [3]: 0.04 OD 490 nm | absorbance at 490 nm [4]: 0.034 OD 490 nm | absorbance at 490 nm [5]: 0.0335 OD 490 nm | absorbance at 490 nm [6]: 0.0345 OD 490 nm | absorbance at 490 nm [7]: 0.035 OD 490 nm | absorbance at 490 nm [8]: 0.031 OD 490 nm | absorbance at 490 nm [9]: 0.0325 OD 490 nm | absorbance at 490 nm [10]: 0.031 OD 490 nm | absorbance at 490 nm [11]: 0.0315 OD 490 nm | absorbance at 490 nm [12]: 0.032 OD 490 nm | absorbance at 490 nm [13]: 0.0345 OD 490 nm

B3: Fab 3 (Fab, V domains shown)
VH: B1 VH
VL: B1 VL with V29I, S39P, S91Y
notes: Mouse Fab from a Biosite Omniclonal library, kappa light chain (detected or captured with goat anti-mouse kappa); also called anti-myostatin Fab 3
binding result [1]: binds | absorbance at 490 nm [2]: 0.419 OD 490 nm | absorbance at 490 nm [3]: 0.0705 OD 490 nm | absorbance at 490 nm [4]: 0.034 OD 490 nm | absorbance at 490 nm [5]: 0.0345 OD 490 nm | absorbance at 490 nm [6]: 0.034 OD 490 nm | absorbance at 490 nm [7]: 0.0335 OD 490 nm | absorbance at 490 nm [8]: 0.033 OD 490 nm | absorbance at 490 nm [9]: 0.033 OD 490 nm | absorbance at 490 nm [10]: 0.032 OD 490 nm | absorbance at 490 nm [11]: 0.033 OD 490 nm | absorbance at 490 nm [12]: 0.034 OD 490 nm | absorbance at 490 nm [13]: 0.034 OD 490 nm

B4: Fab 11 (Fab, V domains shown)
VH: B1 VH
VL: B1 VL with V29I, S39P, S91N
notes: Mouse Fab, kappa light chain; also called anti-myostatin Fab 11
binding result [1]: binds

B5: Fab 14 (Fab, V domains shown)
VH: B1 VH
VL: B1 VL with S39P, S91Y
notes: Mouse Fab, kappa light chain; also called anti-myostatin Fab 14
binding result [1]: binds

B6: Fab 10 (Fab, V domains shown)
VH: B1 VH with S14P, K59E
VL: B1 VL with I2V, V29I, S39P, S91Y
notes: Mouse Fab, kappa light chain; also called anti-myostatin Fab 10
binding result [1]: binds

B7: Fab 12 (Fab, V domains shown)
VH: B1 VH with I11M
VL: B1 VL with I2V, S30Y, K38R, T41A, S91T, S92Y
notes: Mouse Fab, kappa light chain; also called anti-myostatin Fab 12
binding result [1]: binds

B8: Fab 5 (Fab, V domains shown)
VH: B1 VH with L24F, R30S, N67S, L76S, G88D, A101G, I106L
VL: B1 VL with I2V, P15L, S30H
notes: Mouse Fab, kappa light chain; also called anti-myostatin Fab 5
binding result [1]: binds | absorbance at 490 nm [2]: 0.202 OD 490 nm | absorbance at 490 nm [3]: 0.034 OD 490 nm | absorbance at 490 nm [4]: 0.035 OD 490 nm | absorbance at 490 nm [5]: 0.032 OD 490 nm | absorbance at 490 nm [6]: 0.033 OD 490 nm | absorbance at 490 nm [7]: 0.0325 OD 490 nm | absorbance at 490 nm [8]: 0.032 OD 490 nm | absorbance at 490 nm [9]: 0.033 OD 490 nm | absorbance at 490 nm [10]: 0.033 OD 490 nm | absorbance at 490 nm [11]: 0.033 OD 490 nm | absorbance at 490 nm [12]: 0.0325 OD 490 nm | absorbance at 490 nm [13]: 0.034 OD 490 nm

B9: Fab 15 (Fab, V domains shown)
VH: B1 VH
VL: B1 VL with K18E, V29I, S30N, S91N, A99G
notes: Mouse Fab, kappa light chain; also called anti-myostatin Fab 15
binding result [1]: binds
